Measured values reported in the supplement of paper PMC10126150.
± gives the standard deviation of the averaged measurements.

System: ATP
Assay: switch fluorescence ratio, 500 uM ATP over buffer (Cy3 cluster intensity, sum of 5 cycles each) (fold (ratio)); higher = stronger signal-on switching upon ATP binding; sequences stand for … in TCGTCGGCAGCGTCAGATGTGTATAAGAGACAGTTTTTTTTTTTTTTTTTTTTTTTTT…TC
Details: aptamer strand: ATP DNA aptamer (quencher-CACCTGGGGGAGTATTGCGGAGGAAGG + anchor), 100 nM annealed; ATP concentration: 500 uM
Method in brief: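 Five buffer/ATP imaging cycles were run on Cy3-labelled switching-strand clusters on a modified Illumina MiSeq flow-cell, with NaOH stripping and re-annealing between cycles. In each cycle, clusters annealed to 100 nM quencher-labelled ATP aptamer were imaged in selection buffer, then after 15 min with 500 uM ATP at 22 °C. Per cluster, the fluorescence ratio is summed target-cycle over summed buffer-cycle Cy3 intensity, averaged per switch-domain sequence. Only clusters within 100-1000 RFU were kept.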
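Also: ATP exposure 15 min at 22 °C before imaging.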

Sequence | switch fluorescence ratio
GGTTCAGGGA | 0.977 ± 0.0099
TTAGGGGGCA | 1.01 ± 0.03
AAATTCACTT | 0.997 ± 0.021
TCGATTCAGC | 0.979 ± 0.025
TTATGATTCT | 0.972 ± 0.025
GGCCGATTGT | 0.962 ± 0.024
AAATTTTGGC | 1.1 ± 0.042
TTCTTAGCCG | 1.0545 ± 0.00031
TTTTGATACG | 0.996 ± 0.041
TAGCTGTTCG | 0.9887 ± 0.004
ACATTATATG | 1.01 ± 0.043
TAATTTTGTT | 1.02 ± 0.019
GCAGGGTGTC | 1.08 ± 0.048
GGTTAGTTGG | 0.978 ± 0.027
TGGAGCTTGA | 1.02 ± 0.021
TGCGGGAAGT | 1 ± 0.014
GAGGTAGAGG | 0.986 ± 0.026
AGTACAGGGT | 0.99 ± 0.032
GGAGATTGGG | 0.9697 ± 0.0033
GCATTTGCTT | 1.01 ± 0.019
TTAAAGTAGT | 1.19 ± 0.32
CTATTCCGAG | 1.16 ± 0.066
ACGTGGTCCA | 0.985 ± 0.037
TTCAATTTGG | 1.01 ± 0.021
ATCATGGTTG | 1.002 ± 0.0063
GGGGGAGTCC | 0.985 ± 0.014

Sequence | switch fluorescence ratio
GGGTGGTGGG | 0.987 ± 0.057
ATCTGATCGA | 0.96 ± 0.037
TTTACGTGGA | 1.02 ± 0.028
CTTTGATTAG | 0.9838 ± 0.0061
TATTCATGGT | 1.025 ± 0.0057
ACGGGATGTG | 0.978 ± 0.016
GGTGCCGCGG | 1.01 ± 0.023
AGTCCGGGAG | 1.02 ± 0.026
TCACTGGGTA | 0.995 ± 0.014
TATTTCTTTT | 1.05 ± 0.11
TCGGAAATTT | 1.002 ± 0.0079
AGAGTGTTGG | 0.985 ± 0.034
TTATTTGCCT | 1.17 ± 0.18
AATATGTGTG | 0.97933 ± 0.00034
AAGGTCCGCT | 1.05 ± 0.02
GGTTTGGTTA | 1 ± 0.027
CTGGGGAGGC | 1.06 ± 0.041
TGGGAAGGGG | 0.998 ± 0.013
ATGGACGCCT | 1.01 ± 0.037
TATGGCCCGG | 1.02 ± 0.0014
GGCACTAAGT | 1.04 ± 0.036
TTTTTTGAAA | 1 ± 0.054
GTCGTAGTAC | 1.1974 ± 0.00024
AATCGGTCAC | 0.998 ± 0.025
TGCGGCGGGT | 1.04 ± 0.012
GGGATTATCA | 1.016 ± 0.0094

Sequence | switch fluorescence ratio
GCTTAATACT | 1.37 ± 0.054
GAGTCTTTGG | 0.973 ± 0.021
ATCTGTCCAG | 1 ± 0.071
CGTTTTTGCT | 0.961 ± 0.05
ATGTAGCTGG | 1.07 ± 0.033
AAGTGGGGCT | 1.005 ± 0.0094
CATGCTGGGC | 1.0235 ± 0.00067
TTCCGGGGGG | 1.02 ± 0.054
GGGAGCCCTC | 0.9958 ± 0.0055
TAGACCATGT | 1.02 ± 0.034
TATTGGAGGT | 0.981 ± 0.021
TAAAGGGTAA | 0.9888 ± 0.0044
CGCACGAGGC | 1.23 ± 0.05
GATTCACGGT | 1.01 ± 0.02
CAAGCGGTT | 0.9628 ± 0.0056
GGGTGGTGTG | 0.99 ± 0.068
TTATTCGGCG | 1 ± 0.032
CGATATAGAC | 1.06 ± 0.013
TTGGGGGGA | 0.997 ± 0.048
GGATAGGGGG | 0.9963 ± 0.0012
ATTGGTAGAG | 0.9717 ± 0.0024
GCGTCTAGGA | 0.9839 ± 0.0033
ATTGGAGTGG | 0.994 ± 0.032
GATGCTCGAG | 1 ± 0.016
TTTTTAGGTC | 1.1 ± 0.21
AAGTGTTAAT | 0.9955 ± 0.0031

Sequence | switch fluorescence ratio
GTAATTTAGG | 0.996 ± 0.042
GACGATGACG | 0.987 ± 0.014
AACTCCAGGG | 1.35 ± 0.2
CGAATCAATC | 2.51 ± 0.44
CGTCATATTG | 0.997 ± 0.027
TACGGTTGGC | 0.989 ± 0.023
TTTAAAAGTC | 1.07 ± 0.086
AATGTCGCGA | 1 ± 0.025
CGTTGGGGG | 0.963 ± 0.029
GGCGCAATTG | 2.04 ± 0.23
AAGGGGGAAT | 1.05 ± 0.031
GAGGCGTCAA | 0.997 ± 0.027
GTGTAACGGG | 0.995 ± 0.027
GTTGGGTAAA | 0.983 ± 0.014
ATAAAATAAT | 0.977 ± 0.048
CCAAAGAATT | 1.03 ± 0.059
TCGGCGTGGG | 1.01 ± 0.025
GAGCTGGTGG | 0.96 ± 0.019
TTGGAGTGTT | 0.999 ± 0.026
CCAAAGCCTC | 2.69 ± 0.21
GTGGACCAGT | 0.972 ± 0.024
GGGGGGGCTC | 0.965 ± 0.035
CAGCATATAT | 2.32 ± 0.053
TGGGCCGCGC | 1.04 ± 0.046
TACCAATAAG | 1.03 ± 0.044
TAAACGAAGT | 0.956 ± 0.054

Sequence | switch fluorescence ratio
ATTTTTGTTC | 1.0252 ± 0.00061
TTTCATGTCT | 0.992 ± 0.019
GGGAGCTAGG | 0.9709 ± 0.0038
TAGGGGGGT | 0.9765 ± 0.0032
TAATGTAACG | 1 ± 0.063
TTCCTTATTA | 1.02 ± 0.011
TTTGTTTGTG | 1 ± 0.014
CATTGGAGCA | 1.027 ± 0.0086
TAGTACTAGA | 1.03 ± 0.02
GGGGGCCATC | 1.003 ± 0.0017
CCATCATTCA | 1 ± 0.028
GGGAAGAGGT | 0.988 ± 0.027
TTTCAAGGGC | 1.04 ± 0.027
GTGTGGGGAC | 0.988 ± 0.044
CTATGTGTCT | 0.97 ± 0.043
TGAAATTACG | 1.03 ± 0.022
ATAAAAAACT | 0.984 ± 0.01
TGTGGTTAGC | 1.01 ± 0.064
GTAGGTAGGT | 0.99 ± 0.024
CGAGATGTGG | 1.02 ± 0.011
AATGGCAGTC | 1.03 ± 0.05
TTTTTCCCGC | 1.07 ± 0.053
TTGGGCATCT | 1.003 ± 0.0031
TGATTTTCTC | 1.01 ± 0.048
AGATTTAGTA | 0.982 ± 0.06
TGGTGGGTGC | 1.04 ± 0.044

Sequence | switch fluorescence ratio
TTTTGGACAT | 0.993 ± 0.029
AAAAACAGCG | 1.02 ± 0.053
ACGAGATGAC | 1.05 ± 0.067
AACGGCCGTG | 1.02 ± 0.046
AGTGTAGTCT | 0.961 ± 0.02
GGGGTGTAGG | 0.993 ± 0.024
TTTTTGTTT | 0.988 ± 0.01
ACGTTTGTTA | 1.002 ± 0.0059
TATTATATTT | 1 ± 0.0046
TTGCGCTATT | 1.07 ± 0.018
ATTGATAGCA | 1.03 ± 0.028
GGGGATACCT | 1.04 ± 0.023
CTAAGGCATG | 1.05 ± 0.0013
GAGGGTAGTT | 1.031 ± 0.0055
GATCTTCGTT | 1.01 ± 0.041
GGGATCTCGG | 1.05 ± 0.0066
TTCTATATTT | 1.01 ± 0.055
CATTTTGGTC | 1.002 ± 0.0039
TGGAAATTTT | 1 ± 0.038
AGTTAAAACG | 1.02 ± 0.011
TTTACAGTGG | 1.05 ± 0.057
TTGTCCGTAG | 1.0583 ± 0.00024
CTCAAGGTGA | 1.45 ± 0.11
